Assay results reported in patent US6573045, “Methods and kits for discovery of RNA-binding compounds” (Ribotargets, Ltd.).

Columns and labels:
Rev peptide [1] = target: T1, Rev peptide (Human immunodeficiency virus 1); test: FRET quenching; ±23; TAMRA-Rev and DABCYL-RRE; 50 mM Tris pH 8, 50 mM KCl, room temp; conditions: protein: synthetic; tags: chemically synthesised peptide; N-terminal TAMRA; label: 3'-DABCYL or 5'-FAM; hairpin
Rev peptide [2] = target: T1, Rev peptide; test: FRET quenching; TAMRA-Rev and DABCYL-TAR; 50 mM Tris pH 8, 50 mM KCl, room temp; conditions: protein: synthetic; tags: chemically synthesised peptide; N-terminal TAMRA; label: 3'-DABCYL or 5'-Cy3; hairpin with bulge

Q: How did the Kd (Rev peptide [1]) turn out when CGUGUGGGCGCAGCGUCAAUGACGCUGCGGUACACACG (ssRNA) [RRE RNA] was run?
A: 0.137 µM

Q: For CCCAGAUCUGAGCCUGGGAGCUCUCUGGG (ssRNA) [TAR RNA 29-mer], which Kd (Rev peptide [2]) is on record?
A: 11 µM
